Experimental data from patent US20120039897A1.

Molecular target: Aβ(1-40) peptide
Assay: cell-based or functional assay

Sequence of Aβ(1-40) peptide (peptide, as listed by the source): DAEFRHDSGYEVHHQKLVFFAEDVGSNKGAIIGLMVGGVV

B1: ACA (control antibody; humanized 266 antibody, U.S. Pat. No. 7,195,761 B2) (antibody, INN chains, looked up, V domains shown)
VH: EVQLVESGGGLVQPGGSLRLSCAASGFTFSRYSMSWVRQAPGKGLELVAQINSVGNSTYYPDTVKGRFTISRDNAKNTLYLQMNSLRAEDTAVYYCASGDYWGQGTLVTVSS
VL: DVVMTQSPLSLPVTLGQPASISCRSSQSLIYSDGNAYLHWFLQKPGQSPRLLIYKVSNRFSGVPDRFSGSGSGTDFTLKISRVEAEDVGVYYCSQSTHVPWTFGQGTKVEIK
- inhibition of Aβ fibril formation (THT fluorescence), antibody 1.3 µM: 20%
